Target: MUC2 VWD3 domain alone, produced as a shorter recombinant protein without the VWD1D2 domains (human)

Question: For “MUC2 VWD3 domain alone, produced as a shorter recombinant protein without the VWD1D2 domains (domain or fragment)”, which stoichiometry N is on record?
Answer: Its stoichiometry N is 3.

Reference: publication PMC4868133
